According to the supplement of paper PMC7125110:
± gives the standard error. This sample holds only a part of the variants without activity.

B1: glmS ribozyme (parent)
chain: AUAAAAGCGCCAGAACUACAGAAAUGUAGUUGACGAGGAGGAGGUUUAUCGAAUUUUCGGCGGAUGCCUCCAAA

Variants of: B1
Test: self-cleavage kobs at 10000 uM GlcN6P; higher = faster cleavage; RNA array
Conditions: with glucosamine-6-phosphate
Outline: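 A hybridised Cy3 probe tracked barcoded ribozyme variants, transcribed in situ by E. coli RNA polymerase on sequenced MiSeq chips, at 37 °C. The variants received 40 μM to 10 mM glucosamine-6-phosphate in HEPES/KCl/Mg(OAc)2 buffer. kobs came from decay fits and kcat and KM from weighted Michaelis–Menten fits.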

Compared with AUAAAAGCGCCCUAACUACAGAAAUGUAGUUGACGAGGAGGAGGUUAAUCGAAUUAUCGGCGGAUGCCUCCAAA [A12C G13U U47A U56A], AUAAAAGCGUCAGAACUACAGAAAUGUAGUUGACGCGGAGGAGGUUUAUCGAAUUUUCGGCGGAUGCCGCCAAA [C10U A36C U69G] is 2.5-fold higher in “self-cleavage kobs at 10000 uM GlcN6P” value: 4.59e-05 ± 1.6e-05 s⁻¹ for the first, 0.000116 ± 2.9e-05 s⁻¹ for the second.

AUAAAAGCGCCGGCACUACAGAAAUGUAGUUGACGAGGAGGAGGUUUAUGGAAUUUUCGGCGGAUGCCUCAAAA [A12G A14C C50G C71A] and AUAAAAGCGCUAGAACUACAGAAAUGUAGUUAACGAGGAGGGGGUUUAUCGAUUUUUCGGCGGAUGCCUCCAAA [C11U G32A A42G A53U] are within error of each other in “self-cleavage kobs at 10000 uM GlcN6P” value: 0.000133 ± 3.2e-05 s⁻¹ for the first, 9.31e-05 ± 2.5e-05 s⁻¹ for the second.

Compared with AUAAAAGCGCUAGAACUACAGAAAUGUAGUUGACGAGGAGGAGGUUUAUCGAAUUUUCGGCGGAUGCCCCCAAA [C11U U69C], AUAAAAGCGCUAGAACUACAGAAAUGUAGUUGACGAGGAGGAGGUUUAUCGGAUUUUCGGCGCAUGCCGCCAAA [C11U A52G G63C U69G] is 5.8-fold lower in “self-cleavage kobs at 10000 uM GlcN6P” value: 0.000482 ± 9.2e-05 s⁻¹ for the first, 8.28e-05 ± 1.9e-05 s⁻¹ for the second.

AUAAAAGCGCAAGAACUACAGAAAUGUAGUUGGCGAGGAGGAGGUUUAUUGAAUUUUUUGCGAAUGCCUCCAAA [C11A A33G C50U C58U G59U G63A] and AUAAAAGCGUCAGAACUACAGAAAUGUAGAUGACGAGGAGGAGGUUUAUCGAAUUUUCGGCGGAUGCUUCCAAA [C10U U30A C68U] cannot be ordered by “self-cleavage kobs at 10000 uM GlcN6P” value: < 1e-05 s⁻¹ for the first, < 1e-05 s⁻¹ for the second.

First: AUAAAAGCGCUAGAGCUACAGAAAUGUAGUUGACGAGGAGGAGGUUUAUCGGAUUUUCGGCGGAUGCCUCCAAA [C11U A15G A52G]
Second: AUAAAAGCGCCCGAACUACAGAAAUAUAGUUGACGAGGAGAAGGUUUAUCGAAGUUUCGGCGGAUGCCUCCAAA [A12C G26A G41A U54G]
The “self-cleavage kobs at 10000 uM GlcN6P” value of the first is 4.4-fold lower: 0.0001 ± 2.4e-05 s⁻¹ for the first, 0.00044 ± 0.00012 s⁻¹ for the second.

First: AUAAAAGCGUCAGAACUACAGAAAUGUAGUUGGCCAGGAGGAGGGUUAUCGAAUUUUCGGCGGAUGCUUCCAAA [C10U A33G G35C U45G C68U]
Second: AUAAAAGCGCCGGAACUACAGAAAUGUAGUUGACGAGGAGUAGGUUUAUCGAAUUUUCGGCGGAUGCCUUCAAA [A12G G41U C70U]
The “self-cleavage kobs at 10000 uM GlcN6P” value of the first is lower: < 1e-05 s⁻¹ for the first, 0.00122 ± 0.00022 s⁻¹ for the second.

AUAAAAGCGCAAGAACUACAGAAAUGUAGUCGACGAGGAGGAGGAUUAUCGAAUUUUCGGCGGAUGCCUCCAAA [C11A U31C U45A] and AUAAAAGCGCCCGAACUACAGAAAUGUAGUUGACGAGGAGGAGGUUUAUCGAAUUUUCGGCGGAUGCGUCCAAA [A12C C68G] are within error of each other in “self-cleavage kobs at 10000 uM GlcN6P” value: 4.34e-05 ± 1.5e-05 s⁻¹ for the first, 2.93e-05 ± 8.5e-06 s⁻¹ for the second.

Going from AUAAAAGCGCCCGAACUACAGAAAUGUAGAUGACGAGGAGGAGGUUAAUCUAAUUUUCGGCGGAUGCCUCCAAA [A12C U30A U47A G51U] to AUAAAAGCGCCGGAACUACAGAAAUGUAGUUGACGAGGAGGGGGUUCAUCGAAUUUUCGGCGGAUGCCUCCAAA [A12G A42G U47C], the “self-cleavage kobs at 10000 uM GlcN6P” value rises from < 1e-05 s⁻¹ to 0.000197 ± 3.9e-05 s⁻¹.

Going from AUAAAAGCGGCAGAACUACAGAAAUGUAGUUGACGAGGAUGAGGUCUAUCGAAUUUUCGGCGGAUGCCUCUAAA [C10G G40U U46C C71U] to AUAAAAGCGCUAGAGCUACAGAAAUGUAGUUGACGAGGAGGAGGUUUAUCGAAUUUUGGGCGGAUGCUUCCAAA [C11U A15G C58G C68U], the “self-cleavage kobs at 10000 uM GlcN6P” value rises from < 1e-05 s⁻¹ to 0.000112 ± 2.5e-05 s⁻¹.

First: AUAAAAGCGCCCCAACUACAGAAAUGUAGUUAACGAGGUGGAGGUUUAUCGAAUUUUCGGCGGAUGCCUCCAAA [A12C G13C G32A A39U]
Second: AUAAAAGCGUCAGAACUACAGAAAUGUAGUUGACGAGGGGGUGGUUUAACGACUUUUCGGCGGAUGCCGCCAAA [C10U A39G A42U U49A A53C U69G]
The “self-cleavage kobs at 10000 uM GlcN6P” value of the first is higher: 5.7e-05 ± 1e-05 s⁻¹ for the first, < 1e-05 s⁻¹ for the second.

Going from AUAAAAGCGCCGGAACUACAGAAAUGUAGUUGACGAGGAGGAGGUUUAUCGAAUAUUCGGCGGAUGCUUCCAAA [A12G U55A C68U] to AUAAAAGCGUCAAAACUACAGAAAUGUAGUUGACGAGGAUGAGGUUUAUCGAAUUUUCGGCGGAUGCCUCCAAA [C10U G13A G40U], the “self-cleavage kobs at 10000 uM GlcN6P” value falls from 0.00042 ± 0.0001 s⁻¹ to < 1e-05 s⁻¹.

Going from AUAAAAGCGCAAGAACUACAGAAAUGUAGUUGACGAGGAAGAGGUUUAUCGAAUGUUCGGCGGAUGCCUCGAAA [C11A G40A U55G C71G] to AUAAAAGCGCUAGAACUACAGAAAUGUAGUUGACGAGGUGGAGGUUUAUCGAAGUUUCGGCGGAUGCCUCCAAA [C11U A39U U54G], the “self-cleavage kobs at 10000 uM GlcN6P” value rises from < 1e-05 s⁻¹ to 0.000492 ± 0.00011 s⁻¹.

Going from AUAAAAGCGCUAGAACUACAGAAAUGUAGUUGACGAGGAGGAGGAUUAUCGAAUUUUCGGCGGAUGCCUCCAAA [C11U U45A] to AUAAAAGCGUCAGAACUACAGAAAUGUAGUUGACGAGGAGGCGGUUUAUCGUAUUUUCGGCGGAUGCCUCCAAA [C10U A42C A52U], the “self-cleavage kobs at 10000 uM GlcN6P” value falls from 0.002 ± 0.00051 s⁻¹ to < 1e-05 s⁻¹.

Compared with AUAAAAGCGCUGGAACUACAGAAAUGUAGUUGACGAGGAGGAGGGUUAUCGAAUUUUCGGCGGAUGACUCCAAA [C11U A12G U45G C67A], AUAAAAGCGCGAGCACUACAGAAAUGUAGUUGACGAGGAGGAUGUUUAUCGAAUUUUCGGCGGAUGCCUCCAAA [C11G A14C G43U] is lower in “self-cleavage kobs at 10000 uM GlcN6P” value: 5.25e-05 ± 1.6e-05 s⁻¹ for the first, < 1e-05 s⁻¹ for the second.

AUAAAAGCGGCAGAACUACAGAAAUGUAGUUGACGAGGAUGAGGUUUAUCGAAUAUUCGGUGGAUGCCUCCAAA [C10G G40U U55A C61U] and AUAAAAGCGCCGGAACUACAGAAAUGUAAUUGACGAGGAGGAGGUUUAUCGAAUUUUCGGCGAAUGCCUCCAAA [A12G G29A G63A] cannot be ordered by “self-cleavage kobs at 10000 uM GlcN6P” value: < 1e-05 s⁻¹ for the first, < 1e-05 s⁻¹ for the second.

Going from AUAAAAGCGCGAGAACUACAGAAAUGUAGUUGACGAGGAGGAGGUUUAUCGAAUUUUCGUCGGAUGCCGCCAAA [C11G G60U U69G] to AUAAAAGCGCGAGAACUACAGAAAUGUAGUUGACGAGGAGGUGGUUUAUGGAAUUUUCGGCGGAUGUCUCCAAA [C11G A42U C50G C67U], the “self-cleavage kobs at 10000 uM GlcN6P” value rises from < 1e-05 s⁻¹ to 0.000569 ± 0.00021 s⁻¹.

Compared with AUAAAAGCGCAAGAACUACAGAAAUGUAGUUGACGAGGAGGAGGUUUAUCGAAUUUUCGGCGGAUACCUCCAAA [C11A G66A], AUAAAAGCGCCCGAACUACAGAAAUGUAGUUGACGAAGCGGAGGUUUAUCGAAUUUUCGGCGGAUGCCUCCAAA [A12C G37A A39C] is 13-fold higher in “self-cleavage kobs at 10000 uM GlcN6P” value: 6.59e-05 ± 1.3e-05 s⁻¹ for the first, 0.000849 ± 0.00015 s⁻¹ for the second.

Going from AUAAAAGCGCCGGAACUACAGAAAUGUAGGUGACGAGGAGGAGGUUUAUCGAUUUUUCGGCGGAUGCCUCCAAA [A12G U30G A53U] to AUAAAAGCGUCAGAACUACAGAAAUGUAGUUGACGACGAGGACGUUCAUCGAAUUUUCGGCGGAUGCCUCCAAA [C10U G37C G43C U47C], the “self-cleavage kobs at 10000 uM GlcN6P” value falls from 9.4e-05 ± 2e-05 s⁻¹ to < 1e-05 s⁻¹.

With AUAAAAGCGCUAGAACUACAGAAAUGUAGUUUACUAGGAGGAGGUUUAUCGAAUUUUCGGCGGUUGCCUCCAAA [C11U G32U G35U A64U] the “self-cleavage kobs at 10000 uM GlcN6P” value was < 1e-05 s⁻¹.
